Results as given in publication PMC10491584, “Structural convergence endows nuclear transport receptor Kap114p with a transcriptional repressor function toward TATA-binding protein” (Nature Communications, 2023).
Positions count from the first letter of the chain named. Names may count otherwise. One block for each binder: values may come before it.

What was measured:
Details in all cases: both partners purified
Kap114p wild type = target: T1, Kap114p wild type (S. cerevisiae, UniProt P53067 1-1004); test: ITC; MicroCal iTC200, 25 °C, 20 mM HEPES pH 7.4, 150 mM NaCl; high concentration: 50 µM wild type or mutant Kap114p in the sample cell, 500 µM wild type or mutant yTBPC in the syringe; triplicate
T1 construct: Kap114p (karyopherin-β), S. cerevisiae, full length, amplified from total genomic DNA; GST tag followed by a PreScission site (modified pGEX6p1); PreScission protease added during dialysis; also called Kap114p WT; GST-Kap114p (plasmid pGEX-6P-1-Kap114); source: E. coli Rosetta, purified (GST resin, MonoQ, Superdex 200)
T1 sequence (looked up): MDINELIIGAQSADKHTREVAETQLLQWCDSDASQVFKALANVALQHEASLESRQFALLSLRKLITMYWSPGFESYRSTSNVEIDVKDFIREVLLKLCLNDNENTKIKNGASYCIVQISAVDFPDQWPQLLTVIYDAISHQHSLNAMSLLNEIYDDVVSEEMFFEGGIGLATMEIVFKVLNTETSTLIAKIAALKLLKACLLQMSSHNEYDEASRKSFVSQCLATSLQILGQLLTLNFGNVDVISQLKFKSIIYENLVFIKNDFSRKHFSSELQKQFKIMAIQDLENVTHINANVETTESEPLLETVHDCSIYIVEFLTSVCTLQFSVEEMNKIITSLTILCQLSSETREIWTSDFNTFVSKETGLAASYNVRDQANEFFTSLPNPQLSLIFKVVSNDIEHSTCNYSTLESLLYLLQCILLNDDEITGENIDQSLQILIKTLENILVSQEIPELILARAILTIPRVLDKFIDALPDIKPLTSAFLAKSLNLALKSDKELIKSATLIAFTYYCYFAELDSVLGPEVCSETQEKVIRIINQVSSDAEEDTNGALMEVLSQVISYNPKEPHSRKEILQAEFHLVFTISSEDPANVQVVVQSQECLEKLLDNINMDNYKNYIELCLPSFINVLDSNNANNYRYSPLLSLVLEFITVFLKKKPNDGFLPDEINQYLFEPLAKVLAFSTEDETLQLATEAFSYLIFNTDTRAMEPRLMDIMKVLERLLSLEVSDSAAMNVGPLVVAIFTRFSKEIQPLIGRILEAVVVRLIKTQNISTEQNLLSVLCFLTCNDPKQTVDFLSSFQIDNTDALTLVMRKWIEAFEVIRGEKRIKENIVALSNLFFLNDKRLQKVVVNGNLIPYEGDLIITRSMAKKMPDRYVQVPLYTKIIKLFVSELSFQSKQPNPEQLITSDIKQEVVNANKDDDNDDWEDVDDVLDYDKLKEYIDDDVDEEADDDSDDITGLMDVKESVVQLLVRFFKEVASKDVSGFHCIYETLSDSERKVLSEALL

Kap114p(Y370A) = target: T2, Kap114p(Y370A) (S. cerevisiae, UniProt P53067 1-1004, Y370A); test: ITC; MicroCal iTC200, 25 °C, 20 mM HEPES pH 7.4, 150 mM NaCl; 25 or 50 μM wild type or mutant Kap114p in the cell, 250 or 500 μM wild-type or mutant yTBP^C in the syringe; triplicate
T2 construct: Kap114p, S. cerevisiae, full length, point mutant Y370A; source: E. coli Rosetta, purified (GST resin, MonoQ, Superdex 200); not shown: GST, N-terminal, cleaved
T2 sequence (looked up): T1 sequence (looked up) with Y370A

Kap114p (Y370A) = target: T3, Kap114p (Y370A) (S. cerevisiae, UniProt P53067 1-1004, Y370A); test: ITC; MicroCal iTC200, 25 °C, 20 mM HEPES pH 7.4, 150 mM NaCl; low concentration: 25 µM wild type or mutant Kap114p in the sample cell, 250 µM wild type or mutant yTBPC in the syringe; triplicate
T3 construct: Kap114p, S. cerevisiae, full length with Y370A; also called GST-Kap114p (Y370A); source: E. coli Rosetta, purified (GST resin, MonoQ, Superdex 200)
T3 sequence (looked up): T1 sequence (looked up) with Y370A

Kap95p = target: T4, Kap95p (S. cerevisiae, UniProt Q06142 1-861); test: ITC; Kap95p with wild type or R141A yTBP^C; which protein was in the cell is not told for Kap95p; n = 3
T4 construct: Kap95p, S. cerevisiae, full length; The purification paragraph is headed for Kap114p proteins; that Kap95p was treated alike is surmised; source: E. coli, GST-tagged construct in modified pGEX6p1; purification told for the GST-tagged proteins; not shown: GST, N-terminal, cleaved
T4 sequence (looked up): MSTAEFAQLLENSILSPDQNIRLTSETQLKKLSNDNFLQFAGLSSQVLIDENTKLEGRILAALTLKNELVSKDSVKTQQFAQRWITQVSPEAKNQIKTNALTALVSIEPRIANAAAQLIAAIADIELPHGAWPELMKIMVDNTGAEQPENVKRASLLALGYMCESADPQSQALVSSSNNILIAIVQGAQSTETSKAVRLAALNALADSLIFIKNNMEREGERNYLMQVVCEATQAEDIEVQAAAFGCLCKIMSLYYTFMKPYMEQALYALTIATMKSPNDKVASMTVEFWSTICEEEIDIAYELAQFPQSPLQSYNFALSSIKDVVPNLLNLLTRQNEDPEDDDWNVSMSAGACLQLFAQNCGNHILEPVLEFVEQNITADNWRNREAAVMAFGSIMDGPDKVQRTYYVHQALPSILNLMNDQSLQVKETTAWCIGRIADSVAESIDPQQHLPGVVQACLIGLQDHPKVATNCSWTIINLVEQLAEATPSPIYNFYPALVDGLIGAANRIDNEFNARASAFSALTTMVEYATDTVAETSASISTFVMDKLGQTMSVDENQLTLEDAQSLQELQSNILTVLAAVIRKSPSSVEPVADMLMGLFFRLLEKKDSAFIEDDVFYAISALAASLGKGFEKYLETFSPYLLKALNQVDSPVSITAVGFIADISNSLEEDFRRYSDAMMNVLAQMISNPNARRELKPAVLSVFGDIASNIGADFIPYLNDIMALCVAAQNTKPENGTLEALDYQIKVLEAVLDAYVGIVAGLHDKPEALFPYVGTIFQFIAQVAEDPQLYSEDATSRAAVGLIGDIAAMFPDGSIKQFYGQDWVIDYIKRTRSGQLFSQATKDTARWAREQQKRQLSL

Kap114p (wild type) = target: T5, Kap114p (wild type) (S. cerevisiae, UniProt P53067 1-1004); test: ITC; MicroCal iTC200, 25 °C, 20 mM HEPES pH 7.4, 150 mM NaCl; 25 or 50 μM wild type or mutant Kap114p in the cell, 250 or 500 μM wild-type or mutant yTBP^C in the syringe; triplicate
T5 construct: Kap114p, S. cerevisiae, full length, amplified from total genomic DNA; GST tag removed with PreScission protease; also called karyopherin-β Kap114p; source: E. coli Rosetta, purified (GST resin, MonoQ, Superdex 200); not shown: GST, N-terminal, cleaved
T5 sequence (looked up): T1 sequence (looked up)

Kap114p (Q597A) [1] = target: T6, Kap114p (Q597A) (S. cerevisiae, UniProt P53067 1-1004, Q597A); test: ITC; MicroCal iTC200, 25 °C, 20 mM HEPES pH 7.4, 150 mM NaCl; low concentration: 25 µM wild type or mutant Kap114p in the sample cell, 250 µM wild type or mutant yTBPC in the syringe; triplicate
T6 construct: Kap114p, S. cerevisiae, full length with Q597A; also called GST-Kap114p (Q597); source: E. coli Rosetta, purified (GST resin, MonoQ, Superdex 200)
T6 sequence (looked up): T1 sequence (looked up) with Q597A

Kap114p (Q597A) [2] = target: T6, Kap114p (Q597A); test: ITC; MicroCal iTC200, 25 °C, 20 mM HEPES pH 7.4, 150 mM NaCl; high concentration: 50 µM wild type or mutant Kap114p in the sample cell, 500 µM wild type or mutant yTBPC in the syringe; triplicate

B1: yTBP^C (K145A) (domain or fragment, S. cerevisiae, UniProt P13393 61-240, looked up)
chain: SGIVPTLQNIVATVTLGCRLDLKTVALHARNAEYNPKRFAAVIMRIREPKTTALIFASGKMVVTGAKSEDDSKLASRKYARIIQAIGFAAKFTDFKIQNIVGSCDVKFPIRLEGLAFSHGTFSSYEPELFPGLIYRMVKPKIVLLIFVSGKIVLTGAKQREEIYQAFEAIYPVLSEFRKM
notes: also called yTBP(K145A); pET28a-Spt15 (61-240) (K145A); source: E. coli Rosetta, purified (Ni-NTA, HiTrap SP, Superdex 75); not shown: His6, N-terminal, cleaved
Kd (Kap114p wild type): 238 nM

B2: yTBP^C (N91A) (domain or fragment, S. cerevisiae, UniProt P13393 61-240, looked up)
chain: B1 chain with N31A, A85K
notes: 61-240, point mutant N91A; also called yTBP(N91A); source: E. coli Rosetta, purified (Ni-NTA, HiTrap SP, Superdex 75); not shown: His6, N-terminal, cleaved
Kd (Kap114p(Y370A)): ~1500 nM

B3: yTBP^C (N91A) (domain or fragment, S. cerevisiae, UniProt P13393 61-240, looked up)
chain: B1 chain with N31A, A85K
notes: also called yTBP(N91A); His-yTBP (61-240) (N91A); source: E. coli Rosetta, purified (Ni-NTA, HiTrap SP, Superdex 75); not shown: His6, N-terminal, cleaved
Kd (Kap114p (Y370A)): 938 nM
Kd (Kap114p wild type): 28.9 nM

More lines, now with the values ahead:

Kd (Kap95p): ~9.7 µM
fold reduction of the binding affinity against wild type yTBP^C (Kap114p (wild type)): > 200 fold
B4: yTBP^C (R141A) (domain or fragment, S. cerevisiae, UniProt P13393 61-240, looked up)
chain: B1 chain with R81A, A85K
notes: 61-240, point mutant R141A; also called yTBP(R141A); source: E. coli Rosetta, purified (Ni-NTA, HiTrap SP, Superdex 75); not shown: His6, N-terminal, cleaved

Kd (Kap114p (Q597A) [1]): 165 nM
Kd (Kap114p wild type): 255 nM
Kd (Kap114p (Q597A) [2]): 316 nM
B5: yTBP^C (R141A) (domain or fragment, S. cerevisiae, UniProt P13393 61-240, looked up)
chain: B1 chain with R81A, A85K
notes: also called yTBP(R141A); His-yTBP (61-240) (R141A); source: E. coli Rosetta, purified (Ni-NTA, HiTrap SP, Superdex 75); not shown: His6, N-terminal, cleaved
